From patent US20240270828A1 (UAB RESEARCH FOUNDATION, published 2024)
Read-outs that look alike come from different tables or passages of the source.

How the values were obtained:
SARS-CoV-2 Spike protein [1] = molecular target: T1, SARS-CoV-2 Spike protein (SARS-CoV-2, UniProt P0DTC2 16-1211); assay: SPR/BLI, method not told apart
SARS-CoV-2 Spike protein [2] = molecular target: T1, SARS-CoV-2 Spike protein; assay: BLI, mAb on anti-human Fc biosensor, SARS-CoV-2 Spike in solution
SARS-CoV-2 Spike protein [3] = molecular target: T1, SARS-CoV-2 Spike protein
[4] = molecular target: T2, SARS-CoV-2 Omicron Spike protein (SARS-CoV-2 Omicron, UniProt P0DTC2 16-1213)
[5] = molecular target: T2, SARS-CoV-2 Omicron Spike protein; assay: BLI, mAb on anti-human Fc biosensors
NL63 Spike protein = molecular target: T3, NL63 Spike protein (HCoV-NL63, UniProt Q6Q1S2 19-1296); assay: ELISA titration of 1249A8 on coated Spike proteins, mean Abs at 450 nm
T3 sequence: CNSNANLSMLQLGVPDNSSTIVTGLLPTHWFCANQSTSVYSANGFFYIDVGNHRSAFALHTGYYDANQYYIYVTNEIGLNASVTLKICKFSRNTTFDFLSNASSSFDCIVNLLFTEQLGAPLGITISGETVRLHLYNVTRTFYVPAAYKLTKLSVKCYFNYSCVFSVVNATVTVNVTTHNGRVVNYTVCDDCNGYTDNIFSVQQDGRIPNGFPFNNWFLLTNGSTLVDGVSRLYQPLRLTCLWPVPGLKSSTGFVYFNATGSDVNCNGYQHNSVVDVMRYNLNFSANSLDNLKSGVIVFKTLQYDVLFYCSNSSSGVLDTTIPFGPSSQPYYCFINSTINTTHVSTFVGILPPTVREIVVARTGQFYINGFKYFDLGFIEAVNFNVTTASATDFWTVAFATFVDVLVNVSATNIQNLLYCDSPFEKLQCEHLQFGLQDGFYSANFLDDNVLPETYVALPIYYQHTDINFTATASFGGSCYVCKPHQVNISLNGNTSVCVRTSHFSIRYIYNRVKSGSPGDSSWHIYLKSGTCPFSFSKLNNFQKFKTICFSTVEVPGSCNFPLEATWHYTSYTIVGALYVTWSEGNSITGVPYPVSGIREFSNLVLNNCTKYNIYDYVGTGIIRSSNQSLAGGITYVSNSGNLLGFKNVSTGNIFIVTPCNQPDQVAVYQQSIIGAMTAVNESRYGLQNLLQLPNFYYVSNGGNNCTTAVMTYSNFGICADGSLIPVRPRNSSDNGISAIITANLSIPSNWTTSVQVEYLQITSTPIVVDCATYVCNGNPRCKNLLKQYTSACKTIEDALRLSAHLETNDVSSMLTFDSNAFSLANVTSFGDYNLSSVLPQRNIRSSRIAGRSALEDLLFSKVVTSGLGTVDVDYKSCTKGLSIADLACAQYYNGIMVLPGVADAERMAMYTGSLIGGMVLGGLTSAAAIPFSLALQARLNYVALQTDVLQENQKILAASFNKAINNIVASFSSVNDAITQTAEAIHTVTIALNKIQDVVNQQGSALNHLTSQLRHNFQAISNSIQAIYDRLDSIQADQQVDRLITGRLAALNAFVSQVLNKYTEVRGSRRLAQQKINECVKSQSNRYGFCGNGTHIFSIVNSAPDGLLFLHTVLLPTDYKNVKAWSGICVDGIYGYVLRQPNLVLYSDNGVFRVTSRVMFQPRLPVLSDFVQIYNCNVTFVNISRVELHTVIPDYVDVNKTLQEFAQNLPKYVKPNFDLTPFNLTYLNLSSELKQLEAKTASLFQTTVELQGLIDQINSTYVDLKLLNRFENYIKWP

229E Spike protein = molecular target: T4, 229E Spike protein (HCoV-229E, UniProt P15423 16-1115); assay: as above
T4 sequence: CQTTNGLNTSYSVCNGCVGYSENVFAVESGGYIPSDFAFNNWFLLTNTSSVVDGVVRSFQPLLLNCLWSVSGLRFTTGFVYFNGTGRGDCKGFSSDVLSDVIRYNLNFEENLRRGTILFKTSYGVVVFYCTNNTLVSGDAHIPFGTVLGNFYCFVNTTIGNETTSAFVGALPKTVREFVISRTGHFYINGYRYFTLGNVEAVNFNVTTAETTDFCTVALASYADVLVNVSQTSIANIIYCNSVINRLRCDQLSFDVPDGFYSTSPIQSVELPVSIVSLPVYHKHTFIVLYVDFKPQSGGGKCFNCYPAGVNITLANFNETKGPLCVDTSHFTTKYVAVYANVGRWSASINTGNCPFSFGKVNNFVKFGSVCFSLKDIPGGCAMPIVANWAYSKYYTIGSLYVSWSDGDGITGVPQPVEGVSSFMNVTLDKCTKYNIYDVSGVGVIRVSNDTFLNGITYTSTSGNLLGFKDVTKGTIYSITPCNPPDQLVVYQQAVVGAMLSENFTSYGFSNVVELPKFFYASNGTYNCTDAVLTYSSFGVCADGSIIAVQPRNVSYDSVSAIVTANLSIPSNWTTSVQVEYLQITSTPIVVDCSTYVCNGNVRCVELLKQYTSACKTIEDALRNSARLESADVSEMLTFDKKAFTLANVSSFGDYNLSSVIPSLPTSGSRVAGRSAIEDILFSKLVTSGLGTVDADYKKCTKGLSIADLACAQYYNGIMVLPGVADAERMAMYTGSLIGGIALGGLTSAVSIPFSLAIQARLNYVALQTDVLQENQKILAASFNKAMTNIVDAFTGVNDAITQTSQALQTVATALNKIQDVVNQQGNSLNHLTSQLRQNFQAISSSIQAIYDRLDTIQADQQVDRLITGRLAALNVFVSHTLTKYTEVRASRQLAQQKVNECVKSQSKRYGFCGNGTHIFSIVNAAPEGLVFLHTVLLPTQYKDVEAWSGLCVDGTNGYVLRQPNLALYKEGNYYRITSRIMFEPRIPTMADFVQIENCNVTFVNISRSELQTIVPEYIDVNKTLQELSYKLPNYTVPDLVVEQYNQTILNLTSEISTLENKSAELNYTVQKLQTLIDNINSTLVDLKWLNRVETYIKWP

SARS-CoV-2 Spike protein [6] = molecular target: SARS-CoV-2 Spike protein (SARS-CoV-2, UniProt P0DTC2 16-1211); assay: SPR, hmAb captured, SARS-CoV-2 Spike injected, 1:1 fit

B1: 1249A8 (antibody, V domains shown)
VH: QVQLVQSGAEVKKPGASMKVSCKASGFTFTDYYMHWVRQAPRQGLEWMGLINPSGSGTAYAQNFQGRVTLARDTSTSTLYMEMGSLTSDDTAVYYCARMDSSGSYDHWGQGTLVTVSS
VL: ETTLTQSPGTLSLSPGDRATLSCRASQTIRISYLAWYQQKPGQAPRLLVYGPSIRATGIPDRFSARGSGTDFTLTISRLEPEDFAVYYCQHYGSSPPRYTFGQGTKLEIK
B1 showed a Kd (SARS-CoV-2 Spike protein [1]) of 1.8 nM, a Kd (SARS-CoV-2 Spike protein [2]) of 2.85 nM and a Kd (SARS-CoV-2 Spike protein [3]) of 1.22 nM. The Kd [4] was 0.517 nM, the Kd [5] was 0.52 nM and the binding result (NL63 Spike protein) was “no binding (tested: about 1000 ng/ml)”. B1: no binding (tested: about 1000 ng/ml) (229E Spike protein).

B2: CV3-25 (antibody, V domains shown)
VH: QVQLVESGAEVKKPGESLKISCKGSGYTFTRYWIGWVRQMPGKGLEWMGIIYPGDSDTRYSPSFQGHVTISADKSISTAYLQWNSLKASDTAMYYCARLPQYCSNGVCQRWFDPWGQGTLVTVSS
VL: EIVLTQSPSSVSASVGDRVTITCRASQGISSWLAWYQQKPGKAPKLLIYAASSLQSGVPSRFSGSGSGTDFTLTISSLQPEDFATYYCQQGNSFPYTFGQGTNLEIK
With B2 the Kd (SARS-CoV-2 Spike protein [6]) was 2.5 nM.

B3: CC40.8 (antibody, V domains shown)
VH: EVQLLESGGGLVQPGGSLRLSCAASGFTFSSYVMTWARQAPGKGLEWVSAISGTGYTYYADSVKGRFTVSRDNSKNTLFLQMSSLRAEDTAVYYCAITMAPVVWGQGTTVTVSS
VL: SYELTQPPSVSVSPGQTARITCSGDALPKRYAYWYQQKSGQAPILVIYEDKKRPSGIPERLSGSKSGTVATLTISGAQVEDEADYYCYSTDSSGNHAVFGGGTQLTVL
Work on B3 yielded a Kd (SARS-CoV-2 Spike protein [6]) of 1.6 nM.

B4: S2P6 (antibody, V domains shown)
VH: EVQLVQSGAEVKKPGASVKVSCKASGYTFTSQYMHWVRQAPGQGLEWIGIINPSGVHTSYAQKFQGRVTLTRDTSTSTLYMELSSLRSEDTAVYYCARGSPKGAFDYWGQGTLVTVSS
VL: not shown
Work on B4 yielded a Kd (SARS-CoV-2 Spike protein [6]) of 9.7 nM.
